In the supplement of paper PMC5998384:

Legend:
HeLa Kyoto [1] = assay: solubility change mitosis vs G1/S (difference of NP-40 vs SDS log2 ratios) (log2 ratio difference); higher = more soluble in mitosis
HeLa Kyoto [2] = assay: solubility in G1/S (NP-40 vs SDS abundance) (log2 ratio); higher = more soluble; conditions: cell cycle stage: G1/S
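Throughout, for solubility change mitosis vs G1/S (difference of NP-40 vs SDS log2 ratios): synchronized HeLa Kyoto cells (double thymidine block for G1/S, nocodazole release for mitosis), protein amounts in NP-40 versus SDS lysates quantified by mass spectrometry, three biological replicates.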
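Throughout, for solubility in G1/S (NP-40 vs SDS abundance): HeLa Kyoto cells arrested at G1/S by double thymidine block, proteins quantified by TMT10plex mass spectrometry in mild NP-40 versus SDS extracts, three biological replicates.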

CABIN1, sequence (chain, as listed by the source): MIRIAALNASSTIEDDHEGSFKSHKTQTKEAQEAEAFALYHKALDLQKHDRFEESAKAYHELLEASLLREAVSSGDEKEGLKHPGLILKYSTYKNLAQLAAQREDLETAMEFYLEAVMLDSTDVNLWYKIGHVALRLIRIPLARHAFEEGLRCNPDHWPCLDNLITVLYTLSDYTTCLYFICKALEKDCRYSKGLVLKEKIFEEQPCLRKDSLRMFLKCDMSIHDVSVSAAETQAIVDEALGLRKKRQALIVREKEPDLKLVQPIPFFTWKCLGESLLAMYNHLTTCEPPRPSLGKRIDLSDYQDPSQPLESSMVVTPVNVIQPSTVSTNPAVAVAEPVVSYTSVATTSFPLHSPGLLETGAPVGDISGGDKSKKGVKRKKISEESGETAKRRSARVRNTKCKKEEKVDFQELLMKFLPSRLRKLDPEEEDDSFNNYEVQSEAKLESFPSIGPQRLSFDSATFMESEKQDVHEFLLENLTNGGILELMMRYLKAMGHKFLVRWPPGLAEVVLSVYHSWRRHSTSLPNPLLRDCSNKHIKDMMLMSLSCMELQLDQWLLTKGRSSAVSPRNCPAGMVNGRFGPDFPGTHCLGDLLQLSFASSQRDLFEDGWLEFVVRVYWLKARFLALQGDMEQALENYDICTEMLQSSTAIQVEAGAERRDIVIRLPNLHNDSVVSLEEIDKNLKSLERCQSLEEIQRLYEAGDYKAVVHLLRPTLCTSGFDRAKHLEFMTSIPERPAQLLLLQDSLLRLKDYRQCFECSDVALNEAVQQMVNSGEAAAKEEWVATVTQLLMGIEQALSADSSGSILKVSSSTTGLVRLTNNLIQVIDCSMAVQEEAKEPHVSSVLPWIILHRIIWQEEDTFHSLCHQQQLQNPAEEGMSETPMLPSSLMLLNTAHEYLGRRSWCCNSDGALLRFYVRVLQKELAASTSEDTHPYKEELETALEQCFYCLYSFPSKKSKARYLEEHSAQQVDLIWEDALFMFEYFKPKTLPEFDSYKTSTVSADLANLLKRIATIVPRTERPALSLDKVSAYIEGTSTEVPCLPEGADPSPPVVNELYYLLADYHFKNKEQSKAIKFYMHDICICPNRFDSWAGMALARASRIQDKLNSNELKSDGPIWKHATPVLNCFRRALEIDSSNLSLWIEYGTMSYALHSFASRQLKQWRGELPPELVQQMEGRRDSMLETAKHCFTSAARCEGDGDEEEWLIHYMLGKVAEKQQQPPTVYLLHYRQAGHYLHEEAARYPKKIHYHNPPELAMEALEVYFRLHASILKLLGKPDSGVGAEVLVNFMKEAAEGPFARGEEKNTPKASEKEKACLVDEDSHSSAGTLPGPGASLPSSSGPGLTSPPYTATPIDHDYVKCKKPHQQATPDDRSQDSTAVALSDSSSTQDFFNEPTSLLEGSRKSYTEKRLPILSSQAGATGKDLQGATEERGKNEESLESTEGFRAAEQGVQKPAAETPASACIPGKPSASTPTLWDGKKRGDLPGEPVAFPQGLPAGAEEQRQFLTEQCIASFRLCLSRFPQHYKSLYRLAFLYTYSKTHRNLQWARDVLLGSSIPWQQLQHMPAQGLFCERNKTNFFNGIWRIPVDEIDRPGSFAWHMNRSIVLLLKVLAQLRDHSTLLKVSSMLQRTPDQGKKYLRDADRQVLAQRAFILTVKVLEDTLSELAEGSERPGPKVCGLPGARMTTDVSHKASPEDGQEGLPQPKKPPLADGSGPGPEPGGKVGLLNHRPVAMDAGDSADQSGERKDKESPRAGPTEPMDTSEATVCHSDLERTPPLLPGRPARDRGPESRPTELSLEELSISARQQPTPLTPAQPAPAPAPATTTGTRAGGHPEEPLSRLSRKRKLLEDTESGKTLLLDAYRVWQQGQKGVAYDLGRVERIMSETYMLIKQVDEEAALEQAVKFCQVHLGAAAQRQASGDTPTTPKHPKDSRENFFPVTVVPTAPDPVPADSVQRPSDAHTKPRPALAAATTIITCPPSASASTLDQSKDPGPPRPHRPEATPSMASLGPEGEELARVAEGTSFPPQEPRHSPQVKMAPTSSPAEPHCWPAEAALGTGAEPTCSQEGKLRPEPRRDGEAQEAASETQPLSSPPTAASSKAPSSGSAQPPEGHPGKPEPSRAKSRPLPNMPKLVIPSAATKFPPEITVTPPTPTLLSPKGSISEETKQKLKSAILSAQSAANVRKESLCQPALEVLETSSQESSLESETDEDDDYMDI
JAG2, sequence (chain, as listed by the source): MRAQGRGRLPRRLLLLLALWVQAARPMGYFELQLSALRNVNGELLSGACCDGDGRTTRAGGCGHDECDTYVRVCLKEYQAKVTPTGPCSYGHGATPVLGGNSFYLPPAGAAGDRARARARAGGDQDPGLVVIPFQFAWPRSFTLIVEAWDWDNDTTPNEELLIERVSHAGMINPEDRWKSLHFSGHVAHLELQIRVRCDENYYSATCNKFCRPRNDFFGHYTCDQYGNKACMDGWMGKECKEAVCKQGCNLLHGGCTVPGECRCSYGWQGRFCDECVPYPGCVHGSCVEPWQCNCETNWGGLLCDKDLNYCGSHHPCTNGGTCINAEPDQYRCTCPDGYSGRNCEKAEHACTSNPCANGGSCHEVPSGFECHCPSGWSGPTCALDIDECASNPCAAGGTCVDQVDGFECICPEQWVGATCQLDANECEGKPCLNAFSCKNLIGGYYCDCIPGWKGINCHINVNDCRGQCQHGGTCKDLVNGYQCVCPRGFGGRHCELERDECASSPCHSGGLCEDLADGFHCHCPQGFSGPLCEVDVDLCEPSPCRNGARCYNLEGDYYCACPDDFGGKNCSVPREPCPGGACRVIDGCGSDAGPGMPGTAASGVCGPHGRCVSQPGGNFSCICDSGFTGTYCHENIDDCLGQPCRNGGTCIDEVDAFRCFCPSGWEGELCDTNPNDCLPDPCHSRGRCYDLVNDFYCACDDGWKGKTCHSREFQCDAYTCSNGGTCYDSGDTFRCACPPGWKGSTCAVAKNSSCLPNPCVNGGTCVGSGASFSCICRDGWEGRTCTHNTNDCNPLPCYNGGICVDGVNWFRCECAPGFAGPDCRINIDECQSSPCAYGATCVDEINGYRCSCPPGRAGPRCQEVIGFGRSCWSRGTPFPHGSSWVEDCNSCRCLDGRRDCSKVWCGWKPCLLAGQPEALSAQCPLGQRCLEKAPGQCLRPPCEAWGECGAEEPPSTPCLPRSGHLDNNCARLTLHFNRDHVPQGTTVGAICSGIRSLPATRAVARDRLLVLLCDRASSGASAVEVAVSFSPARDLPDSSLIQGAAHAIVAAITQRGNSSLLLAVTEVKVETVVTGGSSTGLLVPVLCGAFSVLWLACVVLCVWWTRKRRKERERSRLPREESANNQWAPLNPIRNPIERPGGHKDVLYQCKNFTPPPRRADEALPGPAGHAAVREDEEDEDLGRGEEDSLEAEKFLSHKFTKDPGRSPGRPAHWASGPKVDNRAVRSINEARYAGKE
DNLZ, sequence (chain, as listed by the source): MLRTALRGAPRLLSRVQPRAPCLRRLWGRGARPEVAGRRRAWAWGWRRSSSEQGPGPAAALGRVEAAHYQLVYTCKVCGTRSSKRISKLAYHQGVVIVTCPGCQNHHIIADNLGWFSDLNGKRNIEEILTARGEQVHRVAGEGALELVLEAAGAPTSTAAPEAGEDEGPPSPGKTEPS
HOXC10, sequence (chain, as listed by the source): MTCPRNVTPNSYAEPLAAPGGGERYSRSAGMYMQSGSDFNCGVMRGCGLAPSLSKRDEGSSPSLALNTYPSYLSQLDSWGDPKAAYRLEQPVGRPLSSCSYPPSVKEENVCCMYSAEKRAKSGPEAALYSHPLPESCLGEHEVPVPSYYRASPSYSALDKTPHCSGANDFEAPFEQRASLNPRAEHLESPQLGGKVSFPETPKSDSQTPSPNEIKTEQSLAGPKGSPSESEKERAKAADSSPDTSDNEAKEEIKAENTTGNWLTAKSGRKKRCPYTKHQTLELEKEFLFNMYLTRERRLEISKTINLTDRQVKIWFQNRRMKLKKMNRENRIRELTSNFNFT
DGKZ, sequence (chain, as listed by the source): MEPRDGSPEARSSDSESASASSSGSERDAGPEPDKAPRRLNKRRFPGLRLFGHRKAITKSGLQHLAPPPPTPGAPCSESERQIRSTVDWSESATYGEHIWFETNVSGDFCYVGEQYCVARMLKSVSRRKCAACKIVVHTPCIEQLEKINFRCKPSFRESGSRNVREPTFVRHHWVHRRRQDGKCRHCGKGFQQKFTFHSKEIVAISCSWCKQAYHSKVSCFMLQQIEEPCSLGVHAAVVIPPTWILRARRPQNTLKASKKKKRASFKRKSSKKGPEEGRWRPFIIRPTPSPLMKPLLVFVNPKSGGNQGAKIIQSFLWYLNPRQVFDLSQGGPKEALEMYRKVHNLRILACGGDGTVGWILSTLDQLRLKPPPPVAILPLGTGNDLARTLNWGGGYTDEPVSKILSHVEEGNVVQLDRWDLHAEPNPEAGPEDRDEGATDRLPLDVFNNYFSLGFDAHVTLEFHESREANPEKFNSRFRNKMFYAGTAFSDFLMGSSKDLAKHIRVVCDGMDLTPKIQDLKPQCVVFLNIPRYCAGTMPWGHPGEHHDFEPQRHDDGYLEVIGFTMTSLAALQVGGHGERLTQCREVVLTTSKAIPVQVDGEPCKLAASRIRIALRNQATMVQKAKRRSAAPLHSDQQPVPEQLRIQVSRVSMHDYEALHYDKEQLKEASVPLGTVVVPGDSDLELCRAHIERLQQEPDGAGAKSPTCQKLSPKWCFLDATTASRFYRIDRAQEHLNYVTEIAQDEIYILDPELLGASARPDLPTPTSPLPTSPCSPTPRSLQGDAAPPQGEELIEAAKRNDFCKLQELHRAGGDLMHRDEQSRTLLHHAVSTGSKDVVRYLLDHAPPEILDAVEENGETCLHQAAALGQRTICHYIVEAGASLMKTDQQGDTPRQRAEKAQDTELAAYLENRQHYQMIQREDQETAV

## ALMS1
HeLa Kyoto [1]
  solubility change mitosis (log2): 0.225
HeLa Kyoto [2]
  solubility in G1/S (log2): 0.395

## ALPK2
HeLa Kyoto [1]
  solubility change mitosis (log2): 0.00635
HeLa Kyoto [2]
  solubility in G1/S (log2): -0.117

## BAHCC1
HeLa Kyoto [1]
  solubility change mitosis (log2): 0.257
HeLa Kyoto [2]
  solubility in G1/S (log2): -0.00383

## CABIN1
HeLa Kyoto [1]
  solubility change mitosis (log2): 0.144
HeLa Kyoto [2]
  solubility in G1/S (log2): -0.34

## CENPE
HeLa Kyoto [1]
  solubility change mitosis (log2): -0.1
HeLa Kyoto [2]
  solubility in G1/S (log2): -0.0612

## CEP295
HeLa Kyoto [1]
  solubility change mitosis (log2): -0.138
HeLa Kyoto [2]
  solubility in G1/S (log2): 0.074

## CHD2
HeLa Kyoto [1]
  solubility change mitosis (log2): 0.389
HeLa Kyoto [2]
  solubility in G1/S (log2): -1.9

## CHD7
HeLa Kyoto [1]
  solubility change mitosis (log2): 0.0296
HeLa Kyoto [2]
  solubility in G1/S (log2): -0.18

## COL4A1
HeLa Kyoto [1]
  solubility change mitosis (log2): 0.225
HeLa Kyoto [2]
  solubility in G1/S (log2): -0.0938

## CROCC
HeLa Kyoto [1]
  solubility change mitosis (log2): -0.109
HeLa Kyoto [2]
  solubility in G1/S (log2): 0.091

## DGKZ
HeLa Kyoto [1]
  solubility change mitosis (log2): 0.323
HeLa Kyoto [2]
  solubility in G1/S (log2): 0.0613

## DNLZ
HeLa Kyoto [1]
  solubility change mitosis (log2): 0.242
HeLa Kyoto [2]
  solubility in G1/S (log2): -0.145

## HECTD4
HeLa Kyoto [1]
  solubility change mitosis (log2): 0.00851
HeLa Kyoto [2]
  solubility in G1/S (log2): -0.212

## HOXC10
HeLa Kyoto [1]
  solubility change mitosis (log2): -0.0635
HeLa Kyoto [2]
  solubility in G1/S (log2): 0.535

## IFT140
HeLa Kyoto [1]
  solubility change mitosis (log2): 0.0597
HeLa Kyoto [2]
  solubility in G1/S (log2): -0.373

## JAG2
HeLa Kyoto [1]
  solubility change mitosis (log2): 0.351
HeLa Kyoto [2]
  solubility in G1/S (log2): -0.54

## KCT2
HeLa Kyoto [1]
  solubility change mitosis (log2): -0.29
HeLa Kyoto [2]
  solubility in G1/S (log2): 0.0557

## KLF4
HeLa Kyoto [1]
  solubility change mitosis (log2): 0.0866
HeLa Kyoto [2]
  solubility in G1/S (log2): -0.0723
